This is an account of results in patent US20130217572A1, “SPECIFIC DELIVERY OF AGROCHEMICALS” (VRIJE UNIVERSITEIT BRUSSEL, priority 2010, published 2013).

Assay [1] addresses T1, potato lectin (Sigma) (potato, UniProt Q9S8M0 23-323).
T1 construct: Bought glycoprotein, coated on ELISA plates
T1 sequence (looked up): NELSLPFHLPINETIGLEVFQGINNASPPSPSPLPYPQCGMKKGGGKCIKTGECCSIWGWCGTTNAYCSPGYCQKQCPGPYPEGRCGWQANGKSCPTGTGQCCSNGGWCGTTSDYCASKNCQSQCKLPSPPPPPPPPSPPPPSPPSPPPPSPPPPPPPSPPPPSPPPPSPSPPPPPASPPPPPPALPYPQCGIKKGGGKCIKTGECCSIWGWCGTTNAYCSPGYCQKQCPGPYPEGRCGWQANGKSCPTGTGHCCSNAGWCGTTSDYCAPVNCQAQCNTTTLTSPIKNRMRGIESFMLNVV
Briefly: microcapsule retention; H: amine capsules, BS3 one-step, 0.1 ug VHH/cm2; potato lectin coat 10 ug/ml; 100% coverage.

Assay [2] deals with T1, potato lectin (Sigma). Briefly: microcapsule retention; K: amine capsules, BS3 two-step, 1 ug VHH/cm2; potato lectin coat 10 ug/ml; 10% coverage.
Assay [3] addresses T1, potato lectin (Sigma). Description: microcapsule retention; C: carboxyl capsules, EDC/Sulfo-NHS, 1 ug VHH/cm2; potato lectin coat 100 ug/ml; 10% coverage.
The target of assay [4] is T1, potato lectin (Sigma). Description: microcapsule retention; G: amine capsules, BS3 one-step, 1 ug VHH/cm2; potato lectin coat 1 ug/ml; 100% coverage.
Assay [5] has as its target T1, potato lectin (Sigma). Description: microcapsule retention; H: amine capsules, BS3 one-step, 0.1 ug VHH/cm2; potato lectin coat 100 ug/ml; 100% coverage.
The target of assay [6] is T1, potato lectin (Sigma). Briefly: microcapsule retention; K: amine capsules, BS3 two-step, 1 ug VHH/cm2; potato lectin coat 1 ug/ml; 10% coverage.
For assay [7], the target named is T1, potato lectin (Sigma). Description: microcapsule retention; K: amine capsules, BS3 two-step, 1 ug VHH/cm2; potato lectin coat 1 ug/ml; 100% coverage.
Assay [8] has as its target T1, potato lectin (Sigma). Description: microcapsule retention; C: carboxyl capsules, EDC/Sulfo-NHS, 1 ug VHH/cm2; potato lectin coat 1 ug/ml; 10% coverage.
In assay [9] the target is T1, potato lectin (Sigma). Description: microcapsule retention; K: amine capsules, BS3 two-step, 1 ug VHH/cm2; potato lectin coat 100 ug/ml; 100% coverage.
Assay [10] has as its target T1, potato lectin (Sigma). Briefly: microcapsule retention; H: amine capsules, BS3 one-step, 0.1 ug VHH/cm2; potato lectin coat 10 ug/ml; 10% coverage.
The target in assay [11] is T1, potato lectin (Sigma). Briefly: microcapsule retention; G: amine capsules, BS3 one-step, 1 ug VHH/cm2; potato lectin coat 1 ug/ml; 10% coverage.
Assay [12] deals with T1, potato lectin (Sigma). Description: ELISA, potato lectin coated at 100 ug/ml, VHH at 3 ug/ml, anti-histidine detection. As to the method:
ELISA plates (Maxisorp, Nunc) coated with 100 μl per well 100 μg/ml potato lectin (Sigma) in PBS were coated at 4° C. overnight and coating was continued at room temperature for 1 hour on the next day. Plates were washed three times with PBS/0.05%-TWEEN®-20 and blocked with 5% skimmed milk in PBS for 1 hour. VHH (3 μg/ml) were transferred to the potato lectin-coated plates and VHH antibody fragments were allowed to bind for 1 hour at room temperature. Bound VHH were detected with sequential incubations with monoclonal mouse anti-histidine antibodies (Abd Serotec) and rabbit anti-mouse IgG whole molecule antibodies conjugated with alkaline phosphatase (RaM/AP) (Sigma) in 1% MPBS/0.05%-TWEEN®-20. Unbound antibodies were removed by washing three times with PBS/0.05%-TWEEN®-20 after each antibody incubation. The plates were washed an additional two times with PBS and 100 μl pNPP disodium hexahydrate substrate (Sigma) was added to each well and the absorbance at 405 nm was measured (see Table 2).

The next assay concerns potato leaf discs. Description: Leaf disc binding assay with VHH-coupled Uvitex microcapsules. On the set-up: species or system potato (variety Désirée). As to the method: A leaf disc binding assay was used to evaluate the interaction of VHH-coupled microcapsules with potato, grass and azalea leaves. ø 8 mm leaf discs were sampled from the leaves of potato pot plants (variety Désirée), from the leaves of greenhouse-grown Lollium perenne and from the leaves of azalea pot plants. Leaf discs were washed three times with PBS. Microcapsules containing lambda cyhalothrin or Uvitex were diluted to appropriate densities in 1% skimmed milk in PBS with 0.05%-TWEEN®-20. Microcapsules were added to the leaf discs and settling of microcapsules and binding of targeting agents allowed for 1 hour. Unbound microcapsules were removed by washing three to five times with PBS with 0.05%-TWEEN®-20.
Leaf discs with Uvitex microcapsules were analyzed for bound microcapsules on a macrozoom microscope system (Nikon). Microcapsules were counted using Volocity image analysis software (Perkin Elmer). A DAPI filter was used to visualize Uvitex microcapsules. […]
A titration experiment was performed to investigate what dilution factor of microcapsules with specific VHH corresponds to an application of microcapsules to which no VHH were coupled to obtain similar amounts of microcapsules after an identical treatment. Two-fold serial dilutions of microcapsules were prepared and leaf disc binding was analyzed on potato leaf discs for these dilution series. […]

In assay [13] the test system is intact living potato pot plants. Description: VHH binding to intact living plants. The arrangement: species or system potato (variety Désirée). Particulars: leaves attached to potato pot plant submerged in VHH solution in PBS, 1 hour. As to the method:
Binding of VHH to intact living plants was investigated on potato pot plants (variety Désirée). Compound leaves of intact living plants were submersed in solutions of hexahistidine-tagged VHH in PBS, or PBS alone for control conditions, leaving the compound leaves attached to the plants. VHH were allowed to bind for 1 hour. Next, the compound leaves still attached to the plants were washed five times in PBS in Erlenmeyer flasks. Different leaves and petiole sections were sampled. Bound VHH were detected by incubation with monoclonal mouse anti-histidine antibodies directly conjugated with Alexa-488 fluorescent dye (Abd Serotec) in PBS for 1 hour. Unbound anti-histidine antibodies were removed by washing five times with PBS. Whole leaves, leaf discs, or petiole sections were analyzed for bound VHH with microscopy.

The target in a further assay is unrelated antigens. Briefly: VHH-coupled Uvitex microcapsules retained on wells coated with unrelated antigen; 20% surface coverage.

Take Control VHH: the microcapsule counts (microcapsules) was determined as 780 with potato lectin (Sigma) [1]; 197 in the assay with potato lectin (Sigma) [2]; 55 with potato lectin (Sigma) [3]; 46 in the assay with potato lectin (Sigma) [4]; 622 with potato lectin (Sigma) [5]; 215 in the assay with potato lectin (Sigma) [6]. Also, the microcapsule counts (microcapsules) in the assay with potato lectin (Sigma) [7] came to 617; with potato lectin (Sigma) [8] it was 49; in the assay with potato lectin (Sigma) [9], 866; with potato lectin (Sigma) [10], 215; with potato lectin (Sigma) [11], 7.

B1: VHH 3E6 (VHH)
VHH: QVQLQESGGGLVQPGGTLSLSCAASGFNVRWYGMGWFRQAPGKEREGVACISALQETTAYADSVKGRFTLSRDNPKNTLSLQMNNLQPEDTGVYYCATTDCDDSSRMTYTSYLGQGTQVTVSS
notes: also called Monovalent VHH 3E6
B1: the “absorbance at 405 nm” value with potato lectin (Sigma) [12] turned out to be 4. Further, the “binding and retaining of Uvitex microcapsules to leaf surfaces” value in the assay with potato leaf discs is “capable of binding and retaining microcapsules specifically to leaf surfaces”. Further, the “binding to an intact living plant” value in assay [13] was “binding leaf surface, stomata, glandular trichomes, and leaf hairs”. In the assay with unrelated antigens, the surface area of bound microcapsules worked out at 27.7.
